Measured values as given in paper doi:10.1101/2023.01.30.525655.

Tests used:
[1] = target: RED-NHS-MIF-6xHis (human MIF-6xHis labelled with the RED-NHS dye) (human) (UniProt P14174); assay: MST
[2] = target: MIF-6xHis (human macrophage migration inhibitory factor, hexahistidine-tagged) (human) (UniProt P14174); assay: SEC
[3] = target: MDL1-6xHis (Arabidopsis thaliana MIF/D-DT-like protein 1, hexahistidine-tagged) (Arabidopsis thaliana); assay: SEC
[4] = target: MDL1-6xHis (Arabidopsis thaliana MIF/D-DT-like protein 1, hexahistidine-tagged) (Arabidopsis thaliana); assay: crystal structure

MIF-6xHis (human macrophage migration inhibitory factor, hexahistidine-tagged) (human), sequence (P14174 2-115): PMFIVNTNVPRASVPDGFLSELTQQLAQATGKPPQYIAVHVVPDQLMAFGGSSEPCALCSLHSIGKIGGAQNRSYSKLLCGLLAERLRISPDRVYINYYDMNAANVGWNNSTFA
RED-NHS-MIF-6xHis (human MIF-6xHis labelled with the RED-NHS dye) (human), sequence (P14174 2-115): as above

MDL1-6xHis (Arabidopsis thaliana MIF/D-DT-like protein 1, hexahistidine-tagged) (natural protein)
Kd [1]: < 5 µM
fraction of the mixture in the hetero-hexamer [2]: 0.33
stoichiometry N [3]: 3
stoichiometry N [4]: 3
